The text below walks through data of patent publication US20230314433A1 (KURUME UNIVERSITY, published 2023).

Test [1] has as its target T1, human MDA5 protein (full-length, about 120 kDa) (human, UniProt Q9BYX4 1-1025).
T1 construct: Endogenous cytoplasmic protein in human tissue sections, tissue lysates and PBMCs (band of about 120 kDa); also called IFIH1
T1 sequence: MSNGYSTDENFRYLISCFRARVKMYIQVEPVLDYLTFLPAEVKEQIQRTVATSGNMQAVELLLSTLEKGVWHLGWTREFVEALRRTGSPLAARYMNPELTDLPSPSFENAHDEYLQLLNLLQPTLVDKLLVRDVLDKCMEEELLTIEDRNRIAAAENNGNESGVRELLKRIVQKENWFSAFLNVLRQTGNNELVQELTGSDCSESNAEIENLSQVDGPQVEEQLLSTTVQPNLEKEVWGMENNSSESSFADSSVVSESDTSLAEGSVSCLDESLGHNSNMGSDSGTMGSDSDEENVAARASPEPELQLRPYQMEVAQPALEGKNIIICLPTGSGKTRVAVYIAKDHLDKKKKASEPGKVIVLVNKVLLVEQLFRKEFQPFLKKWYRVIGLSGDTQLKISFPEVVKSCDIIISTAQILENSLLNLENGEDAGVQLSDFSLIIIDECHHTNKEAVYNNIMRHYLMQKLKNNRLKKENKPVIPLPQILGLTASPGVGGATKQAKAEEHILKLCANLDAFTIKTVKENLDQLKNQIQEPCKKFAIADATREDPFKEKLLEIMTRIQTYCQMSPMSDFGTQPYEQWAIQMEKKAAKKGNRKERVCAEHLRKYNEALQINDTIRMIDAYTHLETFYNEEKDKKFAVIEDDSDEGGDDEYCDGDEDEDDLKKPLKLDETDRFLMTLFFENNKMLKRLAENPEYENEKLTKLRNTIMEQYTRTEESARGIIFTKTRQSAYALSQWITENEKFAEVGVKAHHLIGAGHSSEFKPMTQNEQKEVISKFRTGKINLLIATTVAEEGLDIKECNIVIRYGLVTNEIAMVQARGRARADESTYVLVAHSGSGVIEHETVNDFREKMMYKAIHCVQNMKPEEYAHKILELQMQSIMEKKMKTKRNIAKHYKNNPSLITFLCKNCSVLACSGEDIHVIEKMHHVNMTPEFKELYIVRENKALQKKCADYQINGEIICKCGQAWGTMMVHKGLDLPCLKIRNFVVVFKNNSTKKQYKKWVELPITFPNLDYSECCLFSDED
Put plainly: Western blot of normal lung and lung cancer tissues, mAb at 1 ug/mL. As for the experimental part:
Western blotting analysis was performed by using NuPAGE (registered trademark) 7% Tris-Acetate Midi Gel (Thermo Fisher Scientific, Tokyo, Japan) according to the manufacture’s protocol. Anti-human MDA5 mAb (clone H27 or clone H46, 1 µg/mL) was used for immunoblotting, as previously reported (T. Hoshino, et al., Am J Respir Crit Care Med 176 (2007) 49-62).

The target of test [2] is T2, recombinant human MDA5 protein (human, UniProt Q9BYX4 1-1025).
T2 construct: Expressed in SF9 cells with baculovirus; also called pPSC8/human MDA5 product; MDA5 standard; not shown: N-terminal 6X His tag, GST and turbo 3C protease cleavage site
T2 sequence: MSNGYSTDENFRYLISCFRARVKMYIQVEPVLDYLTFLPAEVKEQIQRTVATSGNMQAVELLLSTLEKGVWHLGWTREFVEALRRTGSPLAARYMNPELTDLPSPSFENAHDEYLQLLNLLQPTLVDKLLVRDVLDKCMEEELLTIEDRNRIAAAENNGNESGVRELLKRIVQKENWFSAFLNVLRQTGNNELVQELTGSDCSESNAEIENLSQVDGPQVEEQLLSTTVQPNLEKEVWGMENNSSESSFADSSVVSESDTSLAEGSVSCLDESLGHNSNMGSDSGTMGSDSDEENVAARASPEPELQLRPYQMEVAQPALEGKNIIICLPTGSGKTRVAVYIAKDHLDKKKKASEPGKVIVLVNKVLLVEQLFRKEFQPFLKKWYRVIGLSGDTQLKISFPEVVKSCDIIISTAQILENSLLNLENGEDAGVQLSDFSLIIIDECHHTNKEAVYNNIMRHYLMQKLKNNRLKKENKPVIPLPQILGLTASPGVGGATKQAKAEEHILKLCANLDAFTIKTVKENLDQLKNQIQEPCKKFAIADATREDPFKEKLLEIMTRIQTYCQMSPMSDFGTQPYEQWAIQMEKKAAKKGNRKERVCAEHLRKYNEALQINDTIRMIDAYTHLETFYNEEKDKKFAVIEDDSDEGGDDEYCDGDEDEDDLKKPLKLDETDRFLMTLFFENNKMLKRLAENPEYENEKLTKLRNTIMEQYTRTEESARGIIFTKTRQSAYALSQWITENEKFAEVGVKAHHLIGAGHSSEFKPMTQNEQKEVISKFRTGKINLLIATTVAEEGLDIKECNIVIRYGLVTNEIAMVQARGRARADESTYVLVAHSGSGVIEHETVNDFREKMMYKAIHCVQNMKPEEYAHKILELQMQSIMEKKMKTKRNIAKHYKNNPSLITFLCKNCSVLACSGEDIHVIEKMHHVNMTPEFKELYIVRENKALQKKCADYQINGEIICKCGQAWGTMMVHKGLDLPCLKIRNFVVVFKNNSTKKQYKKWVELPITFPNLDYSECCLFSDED
Nature of the test: electrochemiluminescence sandwich immunoassay (MSD), H46 coated as primary (capture) mAb. How it is done:
The human MDA5 sandwich immunoassay system was established using electrochemiluminescence in a MESOSCALE DISCOVERY (registered trademark) assay system (Meso Scale Japan, Tokyo, Japan). Briefly, mouse anti-human MDA5 monoclonal antibody (clone H46) was used as the primary mAb, dissolved at 2 µg/mL in phosphate-buffered saline (PBS), dispensed into plates in aliquots of 25 µL/well, and left undisturbed overnight at 4° C. The plates were then washed three times with 150 µL Quantikine Wash Buffer 1 (R&D Systems, Minneapolis, MN, USA). Block Ace blocking solution (100 µL/well; Nacalai Tesque, Kyoto, Japan) was added and incubated for at least one hour at room temperature to prevent nonspecific adhesion of the secondary antibody to the plates. The plates were then washed thrice. The samples were aliquoted at 25 µL/well. Recombinant human MDA5 protein diluted to 50 ng/mL, 10 ng/mL, 2 ng/mL, 400 pg/mL, 80 pg/mL, 16 pg/mL, and 3.2 pg/mL was used as a standard. After 1 h of incubation at room temperature, each well was washed thrice. Next, 2 µg/mL biotin-labeled mouse anti-human MDA5 secondary mAb (clone H27) was added at 25 µL/well, followed by incubation for 1 h at room temperature after which each well was washed three times. […] The amount of human MDA5 protein was measured using MESO QuickPlex SQ 120 according to the manufacturer’s protocol.

B1: mouse anti-human MDA5 monoclonal antibody (H46) (antibody, V domains shown)
VH: EFQLQQSGPELVKPGASVKISCKASGYSFTDYNMNWVKQSNGKSLEWIGVINPDYGSTSYNKKFKGKATLTVDQSSTTAYMQLNSLTSEDSAVYFCARDRYGNYFDYWGQGTTLTVSS
VL: QIVLTQSPAIMSASPGEKVTMTCSASSSLNYMHWYLQKPGTSPKRWIYDTSKLASGVPARFSGSGSGTSYSLTISSMEAEDAATYYCHQRSSYPITFGSGTKLEIK
notes: Mouse IgG2b from a hybridoma; also called clone H46; H46 [mouse IgG2b]
For B1, the binding result in test [1] and in test [2] was “binds” throughout.
